Blank lines part the entries; values can stand above or below the molecule they belong to.
Assays:
[1] = target: T1, Concanavalin A (ConA) dimer mutant pET32 (D58N, N118C, H121C, E192Q), SEQ ID NOS: 12 and 24 (Canavalia ensiformis, UniProt P02866, D221N/E103Q/H32C/N281C); assay: FRET response of sensors, Cy3.5-labeled pET32 dimer mutant ConA (donor) with Alexa647-labeled superoxide dismutase (acceptor); format: binding; settings: 500 mg/dL glucose; 6 μM to 24 μM ratio, Alexa647-SOD, FIG. 13
T1 construct: made in house
Excerpt: (§1) Functional properties of recombinant ConA have been characterized by Fluorescence Resonance Energy Transfer (FRET) using a PTI QuantaMaster fluorimeter.

[2] = target: T1, Concanavalin A (ConA) dimer mutant pET32 (D58N, N118C, H121C, E192Q), SEQ ID NOS: 12 and 24; assay: FRET response of sensors, Cy3.5-labeled pET32 dimer mutant ConA (donor) with Cy5.5-labeled superoxide dismutase (acceptor); format: binding; settings: 500 mg/dL glucose; Cy5.5-SOD, FIG. 14
Excerpt: as §1
Sensors made with Cy3.5-labeled pET32 dimer mutant ConA and Cy5.5-labeled superoxide dismutase (SOD).

[3] = target: dye and sugar-labeled therapeutic human serum albumin (tHSA) (human) (UniProt P02768); assay: FRET competition assay (FIG. 12), 4-parameter logistic fit; unlabeled tetramer against labeled tetrameric ConA on HSA
[4] = target: dye and sugar-labeled therapeutic human serum albumin (tHSA) (human) (UniProt P02768); assay: FRET competition assay, 384-well plate: unlabeled tetramer displaces labeled tetrameric ConA from HSA; Ki estimated from EC50 and the concentration of labeled tetramer
[5] = target: T2, dye and sugar-labeled therapeutic human serum albumin (tHSA) (human, UniProt P02768 25-609, sugar-labeled (glycoconjugate); labeled with the acceptor Alexa 647; modified residues not stated); assay: FRET competition assay, 384-well plate: unlabeled competitor displaces labeled tetrameric ConA from HSA; Ki estimated from EC50 and the concentration of labeled tetramer
T2 construct: also called Alexa-HSA; Alexa-labeled Human Serum Albumin
Method: Mutant ConA was characterized by FRET. […] The EC₅₀ was calculated using a 4-parameter logistic equation.

Molecule: OC[C@H]1OC(O)[C@H](O)[C@@H](O)[C@@H]1O (some centres unmarked) [glucose]
- FRET response to the addition of glucose [1]: approximately 262%
- FRET response to the addition of glucose [2]: ~266%

- EC50 [3]: 110 nM
- Ki [4]: 9.1 nM
Molecule: ConA tetramer (tetrameric ConA used as labeled partner and as unlabeled competitor in the competition binding assay) (from UniProt P02866 30-281)

- Ki [5]: ~21 nM
B1: pET32 quad mutant ConA (D58N, N118C, H121C, E192Q), stable dimer (other)
chain: ADTIVAVELDTYPNTDIGDPSYPHIGIDIKSVRSKKTAKWNMQNGKVGTAHIIYNSVNKRLSAVVSYPNADSATVSYDVDLDNVLPEWVRVGLSASTGLYKETNTILSWSFTSKLKSCSTCETNALHFMFNQFSKDQKDLILQGDATTGTDGNLELTRVSSNGSPQGSSVGRALFYAPVHIWESSAVVASFQATFTFLIKSPDSHPADGIAFFISNIDSSIPSGSTGRLLGLFPDAN
modifications: unlabeled as competitor in the FIG. 12 assay; labeled with Cy3.5b / Cy3.5 (donor dye) in the FRET and sensor experiments, labeled residues not stated
notes: also called dimer mutant ConA; pET32 dimer ConA mutant

— patent US20070207498A1, “Design and construction of dimeric concanavalin a mutants” (LifeScan, Inc., priority 2005, published 2007)
